Test results: patent publication US20220348688A1 (PROMAB BIOTECHNOLOGIES, published 2022)

Legend:
CD3 epsilon chain (CD3e) [1] = biological target: T1, CD3 epsilon chain (CD3e) (human, UniProt P07766 23-207); assay: FACS on CD3-positive T cells
T1 construct: whole, on cells; also called CD3 antigen
Source text: The allophycocyanin (APC)-labeled anti-CD3 (eBioscience, San Diego, Calif.) antibody was used for FACS analysis using FACSCalibur (BD Biosciences).
CD3-positive T cells were used for testing binding to CD3.

CD3 epsilon chain (CD3e) [2] = biological target: T1, CD3 epsilon chain (CD3e); assay: FACS

T1 sequence (P07766 23-207): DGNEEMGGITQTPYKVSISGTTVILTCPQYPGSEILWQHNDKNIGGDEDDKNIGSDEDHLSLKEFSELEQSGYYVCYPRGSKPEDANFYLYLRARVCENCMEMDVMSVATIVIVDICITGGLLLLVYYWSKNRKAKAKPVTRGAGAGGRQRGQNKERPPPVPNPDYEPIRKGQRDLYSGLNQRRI

B1: PLAP h4-CD3e bispecific antibody (FIG. 1A structure) (bispecific antibody)
light: DIQMTQSPSSLSASVGDRVTITCRASENIYSYVAWYQQKPGKAPKLLIYNAKSLASGVPSRFSGSGSGTDFTLTISSLQPEDFATYYCQHHYVSPWTFGGGTKLEIKRTVAAPSVFIFPPSDEQLKSGTASVVCLLNNFYPREAKVQWKVDNALQSGNSQESVTEQDSKDSTYSLSSTLTLSKADYEKHKVYACEVTHQGLSSPVTKSFNRGEC
chain: QAVVTQEPSLTVSPGGTVTLTCGSSTGAVTTSNYANWVQEKPGQAFRGLIGGTNKRAPGTPARFSGSLLGGKAALTLSGAQPEDEAEYYCALWYSNLWVFGGGTKLTVLSSASTKGPSVFPLAPSSKSTSGGTAALGCLVKDYFPEPVTVSWNSGALTSGVHTFPAVLQSSGLYSLSSVVTVPSSSLGTQTYICNVNHKPSNTKVDKKVEPKSC
heavy 1: not shown
heavy 2: QVQLQESGPGLVKPSETLSLTCTVSGGSITSYGVSWIRQPPGKGLEWIGVIWEDGSTNYHSALISRVTISVDTSKNQFSLKLSSVTAADTAVYYCARPHYGSSYVGAMEYWGAGTTVTVSSTKGPSVFPLAPSSKSTSGGTAALGCLVKDYFPEPVTVSWNSGALTSGVHTFPAVLQSSGLYSLSSVVTVPSSSLGTQTYICNVNHKPSNTKVDKKVEPKSCDKTHTCPPCPAPEAAGGPSVFLFPPKPKDTLMISRTPEVTCVVVDVSHEDPEVKFNWYVDGVEVHNAKTKPREEQYNSTYRVVSVLTVLHQDWLNGKEYKCKVSNKALGAPIEKTISKAKGQPREPQVCTLPPSRDELTKNQVSLSCAVKGFYPSDIAVEWESNGQPENNYKTTPPVLDSDGSFFLVSKLTVDKSRWQQGNVFSCSVMHEALHNHYTQKSLSLSPGK
notes: Two PLAP Fab arms and one CD3e crossover Fab; knob-into-hole human IgG Fc with P329G, L234A, L235A; also called PLAP h4-CD3 antibody; PLAP h4-Cd3 antibody
binding result (CD3 epsilon chain (CD3e) [1]): binds

B2: PLAP h4-CD3e bivalent antibody (PBM0015), FIG. 1B structure (bispecific antibody)
light: DIQMTQSPSSLSASVGDRVTITCRASENIYSYVAWYQQKPGKAPKLLIYNAKSLASGVPSRFSGSGSGTDFTLTISSLQPEDFATYYCQHHYVSPWTFGGGTKLEIKRTVAAPSVFIFPPSDEQLKSGTASVVCLLNNFYPREAKVQWKVDNALQSGNSQESVTEQDSKDSTYSLSSTLTLSKADYEKHKVYACEVTHQGLSSPVTKSFNRGEC
heavy 1: not shown
heavy 2: QVQLQESGPGLVKPSETLSLTCTVSGGSITSYGVSWIRQPPGKGLEWIGVIWEDGSTNYHSALISRVTISVDTSKNQFSLKLSSVTAADTAVYYCARPHYGSSYVGAMEYWGAGTTVTVSSTKGPSVFPLAPSSKSTSGGTAALGCLVKDYFPEPVTVSWNSGALTSGVHTFPAVLQSSGLYSLSSVVTVPSSSLGTQTYICNVNHKPSNTKVDKKVEPKSCDKTHTCPPCPAPEAAGGPSVFLFPPKPKDTLMISRTPEVTCVVVDVSHEDPEVKFNWYVDGVEVHNAKTKPREEQYNSTYRVVSVLTVLHQDWLNGKEYKCKVSNKALGAPIEKTISKAKGQPREPQVCTLPPSRDELTKNQVSLSCAVKGFYPSDIAVEWESNGQPENNYKTTPPVLDSDGSFFLVSKLTVDKSRWQQGNVFSCSVMHEALHNHYTQKSLSLSPGK
notes: Two PLAP Fab arms; the CD3 scFv is attached to the C-terminal end of CH3 of the knob chain; also called bivalent PLAP h4-CD3 Ab; bivalent humanized PLAPh4-CD3 antibody
binding result (CD3 epsilon chain (CD3e) [2]): binds
